Results taken from patent publication US20240425603A1.

Tests used:
[1] = target: human VEGFR2, over-expressed on HEK293 cells (human) (UniProt P35968); experiment: flow cytometry, HEK cells over-expressing human VEGFR2
[2] = target: human VEGFR3, over-expressed on K562 cells (human) (UniProt P35916); experiment: flow cytometry, K562 cells over-expressing human VEGFR3
[3] = target: Recombinant mouse VEGFR1-Fc (R&D Systems) (mouse) (UniProt P35969); experiment: MSD ECL competition on plate-bound mouse VEGFR1-Fc; competitor biotin PlGF (2 nM)
Chain of Recombinant mouse VEGFR1-Fc (R&D Systems) (mouse) (P35969 27-759 limits assumed): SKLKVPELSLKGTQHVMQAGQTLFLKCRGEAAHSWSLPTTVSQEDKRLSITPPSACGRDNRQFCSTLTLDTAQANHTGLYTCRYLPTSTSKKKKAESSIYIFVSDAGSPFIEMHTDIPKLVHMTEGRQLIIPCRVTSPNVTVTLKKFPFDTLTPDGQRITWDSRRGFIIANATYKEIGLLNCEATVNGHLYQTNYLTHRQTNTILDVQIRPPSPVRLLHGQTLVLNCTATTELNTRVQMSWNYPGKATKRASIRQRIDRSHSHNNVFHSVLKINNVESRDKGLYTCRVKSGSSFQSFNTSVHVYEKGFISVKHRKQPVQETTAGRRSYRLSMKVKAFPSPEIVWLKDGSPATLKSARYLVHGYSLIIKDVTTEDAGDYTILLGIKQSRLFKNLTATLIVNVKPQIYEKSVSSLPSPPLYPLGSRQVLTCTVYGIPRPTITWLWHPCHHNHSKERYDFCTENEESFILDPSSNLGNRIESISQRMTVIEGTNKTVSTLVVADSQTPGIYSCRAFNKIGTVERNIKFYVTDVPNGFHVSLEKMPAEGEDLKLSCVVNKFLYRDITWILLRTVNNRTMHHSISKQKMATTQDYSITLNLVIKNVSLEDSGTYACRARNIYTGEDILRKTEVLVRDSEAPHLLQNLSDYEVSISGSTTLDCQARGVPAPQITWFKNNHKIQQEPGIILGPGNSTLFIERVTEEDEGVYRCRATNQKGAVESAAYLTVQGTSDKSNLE

Chain of human VEGFR2, over-expressed on HEK293 cells (human) (P35968 20-1356): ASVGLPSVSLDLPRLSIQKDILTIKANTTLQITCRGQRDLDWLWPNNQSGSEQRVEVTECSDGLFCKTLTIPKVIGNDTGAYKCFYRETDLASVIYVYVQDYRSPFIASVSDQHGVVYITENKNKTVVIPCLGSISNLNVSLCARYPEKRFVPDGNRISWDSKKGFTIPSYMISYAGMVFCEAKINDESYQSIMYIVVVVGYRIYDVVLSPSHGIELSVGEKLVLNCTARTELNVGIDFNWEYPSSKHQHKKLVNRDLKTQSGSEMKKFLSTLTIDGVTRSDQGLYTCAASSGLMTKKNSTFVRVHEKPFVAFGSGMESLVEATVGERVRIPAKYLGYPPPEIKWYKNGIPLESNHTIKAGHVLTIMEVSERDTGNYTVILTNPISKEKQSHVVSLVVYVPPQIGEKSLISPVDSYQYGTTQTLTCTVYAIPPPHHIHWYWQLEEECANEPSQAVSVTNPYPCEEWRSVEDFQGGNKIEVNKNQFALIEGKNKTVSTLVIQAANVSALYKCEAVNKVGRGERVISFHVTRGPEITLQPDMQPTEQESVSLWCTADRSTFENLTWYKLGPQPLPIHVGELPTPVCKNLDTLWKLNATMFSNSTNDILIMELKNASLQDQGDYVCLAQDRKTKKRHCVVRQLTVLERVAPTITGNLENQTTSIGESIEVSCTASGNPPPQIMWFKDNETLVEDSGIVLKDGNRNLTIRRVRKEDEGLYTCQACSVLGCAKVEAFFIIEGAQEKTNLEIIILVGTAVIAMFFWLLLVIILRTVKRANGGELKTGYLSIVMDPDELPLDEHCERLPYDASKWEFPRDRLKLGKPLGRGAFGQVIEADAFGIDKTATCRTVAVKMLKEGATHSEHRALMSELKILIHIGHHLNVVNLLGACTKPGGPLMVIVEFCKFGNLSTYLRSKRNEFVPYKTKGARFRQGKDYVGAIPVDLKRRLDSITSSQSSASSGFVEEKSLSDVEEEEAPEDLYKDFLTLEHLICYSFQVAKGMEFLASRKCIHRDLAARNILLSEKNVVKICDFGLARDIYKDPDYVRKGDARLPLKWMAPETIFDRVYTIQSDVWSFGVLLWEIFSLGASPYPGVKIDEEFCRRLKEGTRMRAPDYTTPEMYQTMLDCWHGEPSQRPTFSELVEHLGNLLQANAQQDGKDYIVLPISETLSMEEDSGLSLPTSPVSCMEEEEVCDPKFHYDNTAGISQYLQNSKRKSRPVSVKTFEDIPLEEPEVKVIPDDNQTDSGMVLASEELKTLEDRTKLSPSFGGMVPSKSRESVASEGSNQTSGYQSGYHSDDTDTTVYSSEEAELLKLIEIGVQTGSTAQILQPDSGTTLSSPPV
Chain of human VEGFR3, over-expressed on K562 cells (human) (P35916 25-1363): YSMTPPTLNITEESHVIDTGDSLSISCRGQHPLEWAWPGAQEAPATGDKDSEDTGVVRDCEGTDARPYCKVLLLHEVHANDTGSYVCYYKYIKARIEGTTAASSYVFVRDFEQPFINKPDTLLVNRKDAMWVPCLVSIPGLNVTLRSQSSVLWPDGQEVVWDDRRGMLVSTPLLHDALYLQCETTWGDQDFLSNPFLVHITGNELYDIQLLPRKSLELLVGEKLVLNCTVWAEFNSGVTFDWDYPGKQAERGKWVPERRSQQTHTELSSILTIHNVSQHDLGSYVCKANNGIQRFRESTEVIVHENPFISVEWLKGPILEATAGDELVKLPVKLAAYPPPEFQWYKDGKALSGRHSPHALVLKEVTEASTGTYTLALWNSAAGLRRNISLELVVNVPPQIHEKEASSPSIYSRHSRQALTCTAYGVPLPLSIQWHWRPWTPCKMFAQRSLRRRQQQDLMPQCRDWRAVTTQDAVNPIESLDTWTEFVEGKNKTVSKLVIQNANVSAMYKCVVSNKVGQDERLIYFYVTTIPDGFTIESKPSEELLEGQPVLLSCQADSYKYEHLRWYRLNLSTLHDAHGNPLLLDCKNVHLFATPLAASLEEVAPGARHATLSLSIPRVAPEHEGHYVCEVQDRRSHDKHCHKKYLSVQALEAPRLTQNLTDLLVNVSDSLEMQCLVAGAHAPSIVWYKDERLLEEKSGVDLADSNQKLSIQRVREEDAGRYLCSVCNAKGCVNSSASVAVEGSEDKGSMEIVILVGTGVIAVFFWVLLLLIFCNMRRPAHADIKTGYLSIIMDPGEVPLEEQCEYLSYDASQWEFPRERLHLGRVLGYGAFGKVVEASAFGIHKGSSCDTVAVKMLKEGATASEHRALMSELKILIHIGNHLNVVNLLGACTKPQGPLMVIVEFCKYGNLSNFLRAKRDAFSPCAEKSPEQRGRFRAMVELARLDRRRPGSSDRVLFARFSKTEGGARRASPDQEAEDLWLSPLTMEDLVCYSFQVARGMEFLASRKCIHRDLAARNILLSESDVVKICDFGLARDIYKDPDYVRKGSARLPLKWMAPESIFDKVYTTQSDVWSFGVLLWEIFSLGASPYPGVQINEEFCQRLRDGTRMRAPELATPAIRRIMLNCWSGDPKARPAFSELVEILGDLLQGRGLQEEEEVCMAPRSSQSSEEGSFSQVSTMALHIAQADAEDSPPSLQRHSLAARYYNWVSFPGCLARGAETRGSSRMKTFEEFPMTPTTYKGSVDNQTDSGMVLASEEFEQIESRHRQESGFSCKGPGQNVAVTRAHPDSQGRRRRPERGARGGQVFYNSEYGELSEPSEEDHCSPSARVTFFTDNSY

## Goat anti-human VEGFR2 (R&D Systems Catalog #AF357) (antibody)
[1]
  Geomean over-expressing/Geomean parental (Fold Signal/Background): 28 fold

## Goat anti-human VEGFR3 (R&D Systems Catalog #AF349) (antibody)
[2]
  Geomean over-expressing/Geomean parental (Fold Signal/Background): 132 fold

## PlGF as used on mouse VEGFR1 (ligand)
[3]
  IC50: 0.163 nM
  Max % Inh.: 100%
